This passage reports fraction ligated results from the supplement of paper PMC6755084.

In this data set the test system is F1*sub RNA substrate (template-directed ligation). Kind of data set: fraction ligated after 30 min (ligated reads / total reads); higher = more ligase activity; sequences stand for … in GAGACCGCAACTGAAAAGTTGT…AGTTCTGCACGTAGAAGCAAAAGGC
The following applies: 42 °C. How it is done: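 Chip-synthesised pool of F1* ligase ribozyme variants (all single and double substitutions, single, double and triple deletions in the catalytic core and GAA bulge, plus designed variants) was transcribed with T7 and reacted as a pool with excess substrate F1*sub for 30 min at 42 C in 50 mM EPPS pH 8.5, 25 mM MgCl2. Ligated and unligated bands were separated by PAGE, barcoded by RT and deep sequenced; fraction ligated = ligated reads / total reads per variant, relative activity = FL / FL of wild type (0.826). Sequences are the DNA template of the ribozyme.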
Turning to AACTTGTCGTAAGACACTTTGGATGGGTTGA [3d24], the fraction ligated is 0.293.

For the sequence ACACTGTCGTAAGACACTTTGGATGGGTTGA [3d27], the fraction ligated is 0.238. The figure for ACACTTGCGTAAGACACTTTGGATGGGTTGA [3d29] is 0.197; for ACACTTGTCGAAGACACTTTGGATGGGTTGA [3d32] it is 0.475; for ACACTTGTCGTAAACACTTTGGATGGGTTGA [3d34] it is 0.201. The figure for ACACTTGTCGTAAGAACTTTGGATGGGTTGA [3d36] is 0.218. With ACACTTGTCGTAAGACACTTGGATGGGTTGA [3d39], the fraction ligated amounted to 0.157.

As for ACACTTGTCGTAAGACACTTTGATGGGTTGA [3d40], the fraction ligated is 0.0824. The figure for ACACTTGTCGTAAGACACTTTGGAGGGTTGA [3d42] is 0.115.

ACACTTGTCGTAAGACACTTTGGATGGGTTA [3d44] displayed a fraction ligated of 0.217. Regarding ACACTTGTCGTAAGACACTTTGGATGGGTTG [3d45], the fraction ligated worked out at 0.739. The figure for ACACTTGTCGTAAGACACTTTGGATGGGTTGA [2d2] is 0.725; for ACACTTGTCGTAAGACACTTTGGATGGTTGA [3d43] it is 0.662; for ACACTTGTCGTAAGACACTTTGGTGGGTTGA [3d41] it is 0.0656. Sequence ACACTTGTCGTAAGACATTTGGATGGGTTGA [3d38] displayed a fraction ligated of 0.484. The same measure for ACACTTGTCGTAAGACCTTTGGATGGGTTGA [3d37]: 0.627; for ACACTTGTCGTAAGCACTTTGGATGGGTTGA [3d35]: 0.221. As to ACACTTGTCGTAGACACTTTGGATGGGTTGA [3d33], the fraction ligated was 0.552. The same measure for ACACTTGTCTAAGACACTTTGGATGGGTTGA [3d31]: 0.441. Sequence ACACTTGTGTAAGACACTTTGGATGGGTTGA [3d30] yielded a fraction ligated of 0.407.

Sequence ACACTTTCGTAAGACACTTTGGATGGGTTGA [3d28] gave a fraction ligated of 0.0846.

For the sequence ACATTGTCGTAAGACACTTTGGATGGGTTGA [3d26], the fraction ligated was found to be 0.0699.

Sequence ACCTTGTCGTAAGACACTTTGGATGGGTTGA [3d25] yielded a fraction ligated of 0.616. Turning to ATACTGTCGTAAGACACTTTGGATGGGTTGA [3d48], the fraction ligated is 0.361. The same measure for ATACTTGCGTAAGACACTTTGGATGGGTTGA [3d50]: 0.177; for ATACTTGTCGAAGACACTTTGGATGGGTTGA [3d53]: 0.268; for ATACTTGTCGTAAACACTTTGGATGGGTTGA [3d55]: 0.112. ATACTTGTCGTAAGAACTTTGGATGGGTTGA [3d57] registered a fraction ligated of 0.448. In turn, ATACTTGTCGTAAGACACTTGGATGGGTTGA [3d60] came in with a fraction ligated of 0.473.

On to ATACTTGTCGTAAGACACTTTGATGGGTTGA [3d61], for which the fraction ligated stood at 0.291. The same measure for ATACTTGTCGTAAGACACTTTGGAGGGTTGA [3d63]: 0.0364.

Regarding ATACTTGTCGTAAGACACTTTGGATGGGTTA [3d65], the fraction ligated was 0.0347.

In turn, ATACTTGTCGTAAGACACTTTGGATGGGTTG [3d66] gave a fraction ligated of 0.244. The same measure for ATACTTGTCGTAAGACACTTTGGATGGGTTGA [2d3]: 0.478; for ATACTTGTCGTAAGACACTTTGGATGGTTGA [3d64]: 0.21; for ATACTTGTCGTAAGACACTTTGGTGGGTTGA [3d62]: 0.0395. ATACTTGTCGTAAGACATTTGGATGGGTTGA [3d59]: the fraction ligated worked out at 0.446. In the case of ATACTTGTCGTAAGACCTTTGGATGGGTTGA [3d58], the fraction ligated was found to be 0.412. The figure for ATACTTGTCGTAAGCACTTTGGATGGGTTGA [3d56] is 0.279; for ATACTTGTCGTAGACACTTTGGATGGGTTGA [3d54] it is 0.0939. In turn, ATACTTGTCTAAGACACTTTGGATGGGTTGA [3d52] registered a fraction ligated of 0.24. The same measure for ATACTTGTGTAAGACACTTTGGATGGGTTGA [3d51]: 0.734; for ATACTTTCGTAAGACACTTTGGATGGGTTGA [3d49]: 0.0977; for ATATTGTCGTAAGACACTTTGGATGGGTTGA [3d47]: 0.0915. Sequence ATCACGTCGTAAGACACTTTGGATGGGTTGA [3d105] yielded a fraction ligated of 0.749. The same measure for ATCACTGCGTAAGACACTTTGGATGGGTTGA [3d107]: 0.818; for ATCACTGTCGAAGACACTTTGGATGGGTTGA [3d110]: 0.775. The figure for ATCACTGTCGTAAACACTTTGGATGGGTTGA [3d112] is 0.747; for ATCACTGTCGTAAGAACTTTGGATGGGTTGA [3d114] it is 0.848; for ATCACTGTCGTAAGACACTTGGATGGGTTGA [3d117] it is 0.743.

ATCACTGTCGTAAGACACTTTGATGGGTTGA [3d118] returned a fraction ligated of 0.685. The same measure for ATCACTGTCGTAAGACACTTTGGAGGGTTGA [3d120]: 0.148. The same measure for ATCACTGTCGTAAGACACTTTGGATGGGTTA [3d122]: 0.298. The same measure for ATCACTGTCGTAAGACACTTTGGATGGGTTG [3d123]: 0.74.

Turning to ATCACTGTCGTAAGACACTTTGGATGGGTTGA [2d6], the fraction ligated turned out to be 0.739.

In turn, ATCACTGTCGTAAGACACTTTGGATGGTTGA [3d121] yielded a fraction ligated of 0.46. The same measure for ATCACTGTCGTAAGACACTTTGGTGGGTTGA [3d119]: 0.108; for ATCACTGTCGTAAGACATTTGGATGGGTTGA [3d116]: 0.719; for ATCACTGTCGTAAGACCTTTGGATGGGTTGA [3d115]: 0.726. In turn, ATCACTGTCGTAAGCACTTTGGATGGGTTGA [3d113] gave a fraction ligated of 0.749. The sequence ATCACTGTCGTAGACACTTTGGATGGGTTGA [3d111] had a fraction ligated of 0.824. ATCACTGTCTAAGACACTTTGGATGGGTTGA [3d109]: the fraction ligated came out at 0.756.

Sequence ATCACTGTGTAAGACACTTTGGATGGGTTGA [3d108] returned a fraction ligated of 0.823.

ATCACTTCGTAAGACACTTTGGATGGGTTGA [3d106] registered a fraction ligated of 0.761. The same measure for ATCACTTGCGAAGACACTTTGGATGGGTTGA [3d142]: 0.743; for ATCACTTGCGTAAACACTTTGGATGGGTTGA [3d144]: 0.758. For ATCACTTGCGTAAGAACTTTGGATGGGTTGA [3d146], the fraction ligated was determined as 0.835.

In turn, ATCACTTGCGTAAGACACTTGGATGGGTTGA [3d149] returned a fraction ligated of 0.726. With ATCACTTGCGTAAGACACTTTGATGGGTTGA [3d150], the fraction ligated worked out at 0.561.

As for ATCACTTGCGTAAGACACTTTGGAGGGTTGA [3d152], the fraction ligated is 0.061.

In turn, ATCACTTGCGTAAGACACTTTGGATGGGTTA [3d154] registered a fraction ligated of 0.567.

ATCACTTGCGTAAGACACTTTGGATGGGTTG [3d155] registered a fraction ligated of 0.805. Sequence ATCACTTGCGTAAGACACTTTGGATGGGTTGA [2d8] had a fraction ligated of 0.836. The figure for ATCACTTGCGTAAGACACTTTGGATGGTTGA [3d153] is 0.569; for ATCACTTGCGTAAGACACTTTGGTGGGTTGA [3d151] it is 0.0301; for ATCACTTGCGTAAGACATTTGGATGGGTTGA [3d148] it is 0.768. The same measure for ATCACTTGCGTAAGACCTTTGGATGGGTTGA [3d147]: 0.757; for ATCACTTGCGTAAGCACTTTGGATGGGTTGA [3d145]: 0.804. The figure for ATCACTTGCGTAGACACTTTGGATGGGTTGA [3d143] is 0.818; for ATCACTTGCTAAGACACTTTGGATGGGTTGA [3d141] it is 0.763; for ATCACTTGGTAAGACACTTTGGATGGGTTGA [3d140] it is 0.735.

As to ATCACTTGTCAAGACACTTTGGATGGGTTGA [3d171], the fraction ligated is 0.749.

Turning to ATCACTTGTCGAAACACTTTGGATGGGTTGA [3d186], the fraction ligated came out at 0.784. The figure for ATCACTTGTCGAAGAACTTTGGATGGGTTGA [3d188] is 0.805; for ATCACTTGTCGAAGACACTTGGATGGGTTGA [3d191] it is 0.728; for ATCACTTGTCGAAGACACTTTGATGGGTTGA [3d192] it is 0.655. The same measure for ATCACTTGTCGAAGACACTTTGGAGGGTTGA [3d194]: 0.128; for ATCACTTGTCGAAGACACTTTGGATGGGTTA [3d196]: 0.707; for ATCACTTGTCGAAGACACTTTGGATGGGTTG [3d197]: 0.795.

ATCACTTGTCGAAGACACTTTGGATGGGTTGA [2d11] registered a fraction ligated of 0.777. The same measure for ATCACTTGTCGAAGACACTTTGGATGGTTGA [3d195]: 0.714; for ATCACTTGTCGAAGACACTTTGGTGGGTTGA [3d193]: 0.0564. The same measure for ATCACTTGTCGAAGACATTTGGATGGGTTGA [3d190]: 0.762; for ATCACTTGTCGAAGACCTTTGGATGGGTTGA [3d189]: 0.75; for ATCACTTGTCGAAGCACTTTGGATGGGTTGA [3d187]: 0.736.
